For experiment [1], the target named is human αvβ3 protein (CHEMICON International), soluble (human) (UniProt P06756). Put plainly: cell-based or functional assay.
Experiment [2] addresses αvβ3 integrin on C-PAE cells (bovine) (UniProt P80746). Description: C-PAE attachment to Tum-1-coated plates.
Experiment [3] has the same target. Put plainly: C-PAE attachment to Tum-2-coated plates.
For experiment [4] the target is unchanged. Description: C-PAE attachment to Tum-4-coated plates.
For experiment [5], the target named is αvβ3 integrin on HUVEC cells (human) (UniProt P06756). Description: cell binding to vitronectin-coated plates; 10 µg/ml antibody.
For experiment [6] the target is unchanged. Put plainly: HUVEC adhesion to collagen Type IV-coated plates; 10 µg/ml antibody.
For experiment [7] the target is unchanged. Description: HUVEC attachment to plates coated with E. coli Tumstatin-45-132; 10 µg/ml antibody.
The target is the same in experiment [8]. Description: HUVEC attachment to Tumstatin-coated plates; 10 µg/ml antibody; against control IgG.
Experiment [9] shares this target. Description: HUVEC attachment to Tumstatin-coated plates; anti-αvβ3 and anti-β1 antibodies used together.
In experiment [10] the target is integrin β1 subunit on HUVEC cells (human) (UniProt P05556). Put plainly: HUVEC adhesion to collagen Type IV-coated plates; 10 µg/ml antibody.
Experiment [11] shares this target. Description: HUVEC attachment to plates coated with E. coli Tumstatin-45-132; 10 µg/ml antibody.
Experiment [12] shares this target. Put plainly: HUVEC attachment to Tumstatin-coated plates; 10 µg/ml antibody; against control IgG.
Experiment [13] shares this target. Put plainly: cell binding to type IV collagen-coated plates; 10 µg/ml antibody; against control IgG.
The target is the same in experiment [14]. Description: HUVEC adhesion to Arresten-coated plates; 10 µg/ml antibody; blocked pair Arresten / integrin β1.

αvβ3 integrin on HUVEC cells (human), sequence (P06756 31-1048, chain 1 of 2): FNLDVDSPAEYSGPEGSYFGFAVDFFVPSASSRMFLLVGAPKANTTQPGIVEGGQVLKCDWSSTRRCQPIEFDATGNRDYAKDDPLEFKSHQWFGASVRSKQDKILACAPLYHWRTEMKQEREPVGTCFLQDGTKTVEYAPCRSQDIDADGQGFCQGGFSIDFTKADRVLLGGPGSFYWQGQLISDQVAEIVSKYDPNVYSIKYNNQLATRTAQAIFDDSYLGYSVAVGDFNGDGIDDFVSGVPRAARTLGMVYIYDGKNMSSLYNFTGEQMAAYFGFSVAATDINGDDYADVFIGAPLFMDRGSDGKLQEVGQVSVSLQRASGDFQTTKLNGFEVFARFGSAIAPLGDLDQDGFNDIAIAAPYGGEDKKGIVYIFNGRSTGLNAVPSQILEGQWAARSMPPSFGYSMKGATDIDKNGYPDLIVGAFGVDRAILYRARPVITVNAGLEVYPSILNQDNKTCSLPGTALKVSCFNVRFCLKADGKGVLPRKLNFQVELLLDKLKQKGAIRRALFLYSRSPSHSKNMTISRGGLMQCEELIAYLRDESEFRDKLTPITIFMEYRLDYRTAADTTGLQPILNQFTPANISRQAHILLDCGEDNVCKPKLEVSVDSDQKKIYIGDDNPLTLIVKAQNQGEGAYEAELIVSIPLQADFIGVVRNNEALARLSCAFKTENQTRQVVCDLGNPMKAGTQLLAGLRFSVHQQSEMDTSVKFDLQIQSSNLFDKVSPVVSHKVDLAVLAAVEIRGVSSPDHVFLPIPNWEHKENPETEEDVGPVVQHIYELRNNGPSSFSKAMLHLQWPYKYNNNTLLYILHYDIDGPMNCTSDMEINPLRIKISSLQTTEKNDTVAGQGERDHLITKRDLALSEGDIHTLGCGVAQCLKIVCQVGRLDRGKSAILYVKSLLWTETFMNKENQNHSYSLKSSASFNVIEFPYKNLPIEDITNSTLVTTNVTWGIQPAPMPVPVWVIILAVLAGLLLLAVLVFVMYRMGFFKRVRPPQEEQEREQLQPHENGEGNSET
αvβ3 integrin on HUVEC cells (human), sequence (P05106 27-788, chain 2 of 2, further chain): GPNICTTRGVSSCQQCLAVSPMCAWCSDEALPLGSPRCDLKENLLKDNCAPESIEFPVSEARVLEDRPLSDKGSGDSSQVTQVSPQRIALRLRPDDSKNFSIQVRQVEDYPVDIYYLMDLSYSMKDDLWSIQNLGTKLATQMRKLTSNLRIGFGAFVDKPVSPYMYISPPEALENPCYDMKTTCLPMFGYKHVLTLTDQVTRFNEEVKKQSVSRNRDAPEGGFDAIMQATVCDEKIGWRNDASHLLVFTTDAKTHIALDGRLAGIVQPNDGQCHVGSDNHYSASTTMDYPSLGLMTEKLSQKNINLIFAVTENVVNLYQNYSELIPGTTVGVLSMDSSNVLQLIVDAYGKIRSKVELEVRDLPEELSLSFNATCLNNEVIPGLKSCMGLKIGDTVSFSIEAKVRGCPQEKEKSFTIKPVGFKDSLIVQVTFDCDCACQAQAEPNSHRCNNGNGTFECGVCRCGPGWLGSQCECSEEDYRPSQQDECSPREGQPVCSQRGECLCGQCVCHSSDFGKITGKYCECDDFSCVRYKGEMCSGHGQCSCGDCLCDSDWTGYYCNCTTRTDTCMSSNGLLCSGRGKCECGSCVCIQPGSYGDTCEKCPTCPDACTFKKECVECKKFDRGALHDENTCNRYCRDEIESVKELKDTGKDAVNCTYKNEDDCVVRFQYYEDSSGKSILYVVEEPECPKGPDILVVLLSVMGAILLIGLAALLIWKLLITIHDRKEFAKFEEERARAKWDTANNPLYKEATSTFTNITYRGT
integrin β1 subunit on HUVEC cells (human), sequence (P05556 21-798): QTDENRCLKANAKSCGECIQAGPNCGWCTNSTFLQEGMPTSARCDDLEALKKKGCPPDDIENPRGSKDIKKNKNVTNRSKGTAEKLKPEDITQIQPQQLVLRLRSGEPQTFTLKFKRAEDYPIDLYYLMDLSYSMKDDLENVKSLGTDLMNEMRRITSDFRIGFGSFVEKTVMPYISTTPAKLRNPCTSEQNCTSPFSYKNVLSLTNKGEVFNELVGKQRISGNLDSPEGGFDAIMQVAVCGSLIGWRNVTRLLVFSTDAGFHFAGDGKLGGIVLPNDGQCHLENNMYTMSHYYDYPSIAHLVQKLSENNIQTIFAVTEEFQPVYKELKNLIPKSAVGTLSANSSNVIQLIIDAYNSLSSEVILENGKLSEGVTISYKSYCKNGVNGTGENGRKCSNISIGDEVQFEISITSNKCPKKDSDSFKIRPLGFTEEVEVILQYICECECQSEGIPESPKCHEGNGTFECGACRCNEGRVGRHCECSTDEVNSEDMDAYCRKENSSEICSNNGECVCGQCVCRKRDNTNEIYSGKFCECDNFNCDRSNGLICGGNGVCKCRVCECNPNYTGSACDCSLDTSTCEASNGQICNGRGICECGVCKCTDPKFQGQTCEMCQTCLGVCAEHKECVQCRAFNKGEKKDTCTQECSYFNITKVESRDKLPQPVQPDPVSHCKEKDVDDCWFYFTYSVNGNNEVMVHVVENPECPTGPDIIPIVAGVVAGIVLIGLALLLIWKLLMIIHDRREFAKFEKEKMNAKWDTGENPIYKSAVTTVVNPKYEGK
αvβ3 integrin on C-PAE cells (bovine), sequence (P80746 31-1048): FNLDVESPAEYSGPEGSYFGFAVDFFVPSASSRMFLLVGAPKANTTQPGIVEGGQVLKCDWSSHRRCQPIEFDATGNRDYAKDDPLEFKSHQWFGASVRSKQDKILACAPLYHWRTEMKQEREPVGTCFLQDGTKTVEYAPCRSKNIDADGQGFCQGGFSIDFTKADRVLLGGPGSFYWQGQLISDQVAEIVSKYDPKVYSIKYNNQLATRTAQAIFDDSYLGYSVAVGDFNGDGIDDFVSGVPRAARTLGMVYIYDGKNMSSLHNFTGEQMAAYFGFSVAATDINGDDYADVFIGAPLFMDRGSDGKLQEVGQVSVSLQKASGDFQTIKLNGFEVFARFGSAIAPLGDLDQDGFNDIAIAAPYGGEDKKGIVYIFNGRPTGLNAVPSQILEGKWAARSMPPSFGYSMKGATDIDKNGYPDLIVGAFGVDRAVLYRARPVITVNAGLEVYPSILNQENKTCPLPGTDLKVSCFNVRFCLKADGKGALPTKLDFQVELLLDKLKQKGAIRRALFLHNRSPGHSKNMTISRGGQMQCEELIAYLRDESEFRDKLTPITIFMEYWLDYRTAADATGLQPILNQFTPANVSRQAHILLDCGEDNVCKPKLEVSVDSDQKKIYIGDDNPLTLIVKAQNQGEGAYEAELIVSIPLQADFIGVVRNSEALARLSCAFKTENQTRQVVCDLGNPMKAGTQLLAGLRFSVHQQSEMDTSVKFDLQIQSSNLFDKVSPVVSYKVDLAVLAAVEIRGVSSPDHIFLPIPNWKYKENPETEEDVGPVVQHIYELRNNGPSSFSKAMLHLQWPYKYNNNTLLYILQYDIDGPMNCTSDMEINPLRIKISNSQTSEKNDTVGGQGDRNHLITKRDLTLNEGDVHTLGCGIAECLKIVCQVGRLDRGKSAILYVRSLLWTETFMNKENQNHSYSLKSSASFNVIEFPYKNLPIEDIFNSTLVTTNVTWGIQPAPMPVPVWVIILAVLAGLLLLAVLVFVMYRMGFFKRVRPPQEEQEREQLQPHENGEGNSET

For the substance “Tum-2 (from UniProt Q01955 1427-1558) (ligand)”, the recovery of the anti-proliferative effect on C-PAE cells (methylene blue) in [1] came to 74.1%.
Turning to “Tum-4 (from UniProt Q01955 1607-1670) (ligand)”, the recovery of the anti-proliferative effect on WM-164 melanoma cells (methylene blue) in experiment [1] was found to be 76.7%.
Take “monoclonal antibody to αvβ3 integrin (clone LM609, CHEMICON International)”: the % inhibition of cell attachment came out at 55.9% in experiment [2]; 69.8% in experiment [3]; 62.6% in [4]; 47.1% in experiment [7]; 80% in [8]; 91% in experiment [9]. In [5], the % inhibition of cell binding came out at 61%. The % inhibition of cell adhesion in experiment [6] came to 15%.
As for “mouse monoclonal antibody to the human β1 integrin (clone P4C10, Life Technologies/Gibco BRL)”, the results for the % inhibition of cell adhesion in experiment [10] and in [14] were 40% and 70%, respectively. Moreover, the % inhibition of cell attachment in experiment [11] was 47.5%; in experiment [12], 54%. For the same substance, the % inhibition of cell binding in [13] was found to be 53%.

Source of the values: US20030144481A1.
